The values that follow come from article PMC9516341.

The experiment concerns the target Flag-tagged ARNO (p3XFLAG-2-mCytohesin-2). The experiment is described as follows: co-immunoprecipitation (anti-FLAG M2 IP of FLAG-ARNO, immunoblot for FE65, quantified). To be noted: transfected cell lysate; three independent experiments; unpaired t-test, *p < 0.001; parent: 1.

For “Myc-tagged FE65 (from UniProt O00213) R605A”, the ratio to parent worked out at 0.34.
